Assay results: article PMC3638394 (2013)
Where no end group is shown, it is not given here.

T1: αBExt C-terminal peptide, second binding (Homo sapiens, not fully specified; dimer with one αBExt peptide already bound)
T1 chain: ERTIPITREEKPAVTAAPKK

T2: αBPal C-terminal peptide, second binding (Homo sapiens, not fully specified)
T2 chain: ERTIPITRE

T3: αBExt C-terminal peptide, first binding (Homo sapiens)
T3 chain: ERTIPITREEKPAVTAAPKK

T4: αBPal C-terminal peptide, first binding (Homo sapiens)
T4 chain: ERTIPITRE

B1: αB-crystallin core domain (αBDom) dimer 68-153 (protein)
chain: MRLEKDRFSVNLDVKHFSPEELKVKVLGDVIEVHGKHEERQDEHGFISREFHRKYRIPADVDPLTITSSLSSDGVLTVNGPRKQVS
B2: αB-crystallin core domain (αBDom) 68-153 (protein)
chain: B1 chain
modifications: both subunits bound to αBPal peptide
B3: αB-crystallin core domain (αBDom) 68-153 (protein)
chain: B1 chain
B4: αB-crystallin core domain (αBDom) 68-153 (protein)
chain: B1 chain
modifications: both subunits bound to αBExt peptide

Assays:
Assay in all cases: ion-mobility native mass spectrometry titration
[1] = biological target: T1, αBExt C-terminal peptide, second binding
[2] = biological target: T2, αBPal C-terminal peptide, second binding
[3] = biological target: B3
[4] = biological target: T3, αBExt C-terminal peptide, first binding
[5] = biological target: T4, αBPal C-terminal peptide, first binding
[6] = biological target: the molecule itself

Binder: B1
Kd [1]: 300 µM | Kd [2]: 150 µM

Binder: B2
Kd [3]: 4 µM

Binder: B3
Kd [4]: ~70 µM | Kd [5]: ~70 µM | Kd [6]: ~2 µM

Binder: B4
Kd [3]: 6 µM
